From the supplement of paper PMC10126150
± gives the standard deviation of the averaged measurements.

Test system: ATP
Test: switch fluorescence ratio, 500 uM ATP over buffer (Cy3 cluster intensity, sum of 5 cycles each) (fold (ratio)); higher = stronger signal-on switching upon ATP binding; sequences stand for … in TCGTCGGCAGCGTCAGATGTGTATAAGAGACAGTTTTTTTTTTTTTTTTTTTTTTTTT…TC
Conditions: aptamer strand: ATP DNA aptamer (quencher-CACCTGGGGGAGTATTGCGGAGGAAGG + anchor), 100 nM annealed; ATP concentration: 500 uM
Procedure, shortened: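 Exposure to 500 uM ATP lasted 15 min at 22 °C before imaging, and a selection-buffer image was taken beforehand, for Cy3-labelled switching-strand clusters on a modified Illumina MiSeq flow-cell annealed to 100 nM quencher-labelled ATP aptamer. Five buffer/ATP cycles were run with NaOH stripping and re-annealing between them. The fluorescence ratio per cluster is summed target-cycle over summed buffer-cycle Cy3 intensity, averaged per switch-domain sequence. Clusters outside 100-1000 RFU were excluded.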

Sequence | switch fluorescence ratio
GAGTCATGCG | 0.911 ± 0.093
GAGTCATTAA | 0.96 ± 0.041
GAGTCCAGGC | 1.07 ± 0.16
GAGTCCCTGA | 0.993 ± 0.032
GAGTCCTCTT | 1.01 ± 0.032
GAGTCGGCGC | 0.983 ± 0.1
GAGTCGGTTA | 0.98 ± 0.045
GAGTCTCTTA | 1 ± 0.027
GAGTCTGGT | 0.981 ± 0.036
GAGTGAAAGT | 0.99 ± 0.023
GAGTGAGCAG | 0.976 ± 0.022
GAGTGAGGGT | 0.987 ± 0.031
GAGTGCAATT | 1.19 ± 0.034
GAGTGCAGGG | 0.994 ± 0.03
GAGTGCAGGT | 1.01 ± 0.015
GAGTGCCGGG | 1.03 ± 0.016
GAGTGCGACG | 1.08 ± 0.078
GAGTGGACTC | 0.999 ± 0.029
GAGTGGGGA | 1.03 ± 0.04
GAGTGGGGTA | 1 ± 0.011
GAGTGGTCGC | 1.002 ± 0.0014
GAGTGTAAGA | 1 ± 0.034

Sequence | switch fluorescence ratio
GAGTGTCCGG | 0.982 ± 0.025
GAGTGTGACT | 0.97 ± 0.055
GAGTGTGCGC | 1.02 ± 0.03
GAGTGTGCGT | 0.975 ± 0.036
GAGTGTTCGG | 0.988 ± 0.042
GAGTGTTCTT | 0.977 ± 0.01
GAGTGTTTAG | 1.01 ± 0.016
GAGTTACGGG | 1.01 ± 0.072
GAGTTCAGTA | 0.975 ± 0.034
GAGTTCATAG | 1 ± 0.013
GAGTTCGGGA | 1.02 ± 0.029
GAGTTGAAAA | 0.9868 ± 0.001
GAGTTGGTTT | 1 ± 0.022
GAGTTGTGGG | 0.993 ± 0.014
GAGTTGTGTA | 0.985 ± 0.035
GAGTTGTTAT | 0.973 ± 0.037
GAGTTGTTGT | 0.996 ± 0.018
GAGTTTAAAT | 1.02 ± 0.022
GAGTTTCAGA | 1.033 ± 0.0033
GAGTTTCAGT | 1.04 ± 0.073
GAGTTTGTTA | 1.01 ± 0.07
GAGTTTGTTT | 0.99 ± 0.044

Sequence | switch fluorescence ratio
GAGTTTTGGC | 0.952 ± 0.09
GATAAAGTAA | 0.983 ± 0.015
GATAAATGTA | 0.9808 ± 0.0084
GATAACGGGG | 0.972 ± 0.02
GATAAGGGGA | 1.03 ± 0.023
GATAATAGGC | 1 ± 0.06
GATAATATAA | 1.02 ± 0.026
GATAATGCGG | 1.01 ± 0.025
GATAATTATG | 0.98 ± 0.019
GATAATTCTG | 1 ± 0.024
GATAATTGG | 0.988 ± 0.02
GATAATTGTA | 0.9822 ± 0.0033
GATACCGGTG | 1.17 ± 0.25
GATACGCGGG | 0.9947 ± 0.0057
GATAGCTGGG | 1 ± 0.014
GATAGGATGG | 0.9842 ± 0.0027
GATAGGATTG | 0.987 ± 0.022
GATAGGCGTG | 1.01 ± 0.029
GATAGGGATG | 1.001 ± 0.0062
GATAGGGTAT | 0.986 ± 0.015
GATAGGTATA | 1.01 ± 0.032
GATAGGTTTC | 0.977 ± 0.07

Sequence | switch fluorescence ratio
GATAGTCATG | 0.985 ± 0.015
GATAGTTGCG | 1.03 ± 0.06
GATATACCTT | 1.15 ± 0.015
GATATAGTAT | 0.993 ± 0.039
GATATAGTGC | 1.01 ± 0.05
GATATATGAG | 0.997 ± 0.064
GATATATTGC | 1.03 ± 0.012
GATATCACTG | 1.02 ± 0.016
GATATCTGGA | 1.018 ± 0.0099
GATATGAGGG | 1.029 ± 0.0037
GATATGCGTC | 1.04 ± 0.0086
GATATGCTGT | 0.985 ± 0.017
GATATGGAAG | 1.13 ± 0.23
GATATGGATT | 0.977 ± 0.016
GATATGGGAG | 0.988 ± 0.018
GATATGTGTG | 0.991 ± 0.011
GATATGTTGA | 1 ± 0.023
GATATTATCA | 1.017 ± 0.0049
GATATTCGGG | 0.988 ± 0.017
